The values that follow come from patent publication US20040005647A1 (University of California, published 2004).

For assay [1], the target named is T1, MUC-1 antigen expressed on MCF-7 human breast adenocarcinoma cells (human, UniProt P15941 24-1255).
T1 construct: whole, on cells; Scatchard analysis and immunocytochemistry used MCF-7 cells; also called MUC-1 mucin; MUC-1 membrane antigen
Description: immunohistochemistry on a section of the same prostate cancer; biotinylated anti-mouse antibody and colour reagent. From the text: FIG. 4 illustrates staining of prostate cancer using three of the scFv described herein. The scFv is placed on the tissue on the slide and then washed off followed with a biotinylated anti mouse antibody for reaction with any bound scFv and then with a color reagent.

The target of assay [2] is T1, MUC-1 antigen expressed on MCF-7 human …. Description: competitive ELISA regression, estimates of single experiments. Here is the method:
(§1) Competitive ELISA analysis was performed in triplicate at each concentration. Incubations were carried out at 37EC for 1.5 hrs. Following each incubation, the plates were washed with PBS pH 7.4 containing 0.5% Tween 20 followed by PBS washes alone. Pro-Bind™ ELISA assay plates (Becton Dickinson Labware, Franklin Lakes, N.J.) were coated overnight at room temperature with the MCF-7 cell lysate (200 μg/well) in 15 mM sodium bicarbonate buffer pH 9.6. The ELISA plates were rinsed with PBS and blocked with PBS containing 3.0% dried non-fat milk for 1 hr. at room temperature. Ten percent bovine serum albumin (BSA) was used as a negative control. In a separate plate, soluble scFv containing 10% Tween 20 were prepared and stored on ice for 15 minutes. MCF-7 cell Tysate used as the competitor was diluted in 3% non-fat milk to provide the following concentrations 100 nM, 10 nM and 1 nM. The soluble scFv was transferred to the ELISA plate and incubated with the competitor. 100 μl of anti-E-tag diluted 1:250 in 3% non-fat milk solution was added to the wells and the plate incubated. The plate was developed with 2,2′-Amino-bis-3-ethylbenzthiazoline-6-sulfonic acid (ABTS) (Sigma-Aldrich, St. Louis, Mo.) containing 0.3% H₂O₂. The plate was read using a microplate reader at an absorbency of A₄₀₅ nM (Dynex, Chantilly, Va.). Data was generated from three separate trials and analyzed.

Assay [3] has the same target. Description: competitive ELISA: scFv on plated MCF-7 lysate, soluble MCF-7 lysate (MUC-1) as competitor at 1 nM. As to the method:
as §1

Assay [4] has the same target. Description: linear regression of competitive ELISA data. Here is the method:
as §1
A general note: In an ELISA, binding on a coated surface is turned into a signal by an enzyme label.

Assay [5] shares this target. Description: competitive ELISA regression, second experiment. Here is the method:
as §1

For assay [6] the target is unchanged. Description: competitive ELISA regression, third experiment (not statistically significant). Here is the method: as §1
The target is the same in assay [7]. Description: Scatchard analysis, 125I-12E scFv on MCF-7 cells with unlabeled competitor; 42 kD fraction, diabody (divalent).
The target is the same in assay [8]. Description: Scatchard analysis, 125I-12E scFv on MCF-7 cells with unlabeled competitor; 25 kD fraction, monovalent.

Where “and” joins values, the source holds several entries; their conditions need not be identical. Identical values can stand only once.

T1 sequence (P15941 24-1255): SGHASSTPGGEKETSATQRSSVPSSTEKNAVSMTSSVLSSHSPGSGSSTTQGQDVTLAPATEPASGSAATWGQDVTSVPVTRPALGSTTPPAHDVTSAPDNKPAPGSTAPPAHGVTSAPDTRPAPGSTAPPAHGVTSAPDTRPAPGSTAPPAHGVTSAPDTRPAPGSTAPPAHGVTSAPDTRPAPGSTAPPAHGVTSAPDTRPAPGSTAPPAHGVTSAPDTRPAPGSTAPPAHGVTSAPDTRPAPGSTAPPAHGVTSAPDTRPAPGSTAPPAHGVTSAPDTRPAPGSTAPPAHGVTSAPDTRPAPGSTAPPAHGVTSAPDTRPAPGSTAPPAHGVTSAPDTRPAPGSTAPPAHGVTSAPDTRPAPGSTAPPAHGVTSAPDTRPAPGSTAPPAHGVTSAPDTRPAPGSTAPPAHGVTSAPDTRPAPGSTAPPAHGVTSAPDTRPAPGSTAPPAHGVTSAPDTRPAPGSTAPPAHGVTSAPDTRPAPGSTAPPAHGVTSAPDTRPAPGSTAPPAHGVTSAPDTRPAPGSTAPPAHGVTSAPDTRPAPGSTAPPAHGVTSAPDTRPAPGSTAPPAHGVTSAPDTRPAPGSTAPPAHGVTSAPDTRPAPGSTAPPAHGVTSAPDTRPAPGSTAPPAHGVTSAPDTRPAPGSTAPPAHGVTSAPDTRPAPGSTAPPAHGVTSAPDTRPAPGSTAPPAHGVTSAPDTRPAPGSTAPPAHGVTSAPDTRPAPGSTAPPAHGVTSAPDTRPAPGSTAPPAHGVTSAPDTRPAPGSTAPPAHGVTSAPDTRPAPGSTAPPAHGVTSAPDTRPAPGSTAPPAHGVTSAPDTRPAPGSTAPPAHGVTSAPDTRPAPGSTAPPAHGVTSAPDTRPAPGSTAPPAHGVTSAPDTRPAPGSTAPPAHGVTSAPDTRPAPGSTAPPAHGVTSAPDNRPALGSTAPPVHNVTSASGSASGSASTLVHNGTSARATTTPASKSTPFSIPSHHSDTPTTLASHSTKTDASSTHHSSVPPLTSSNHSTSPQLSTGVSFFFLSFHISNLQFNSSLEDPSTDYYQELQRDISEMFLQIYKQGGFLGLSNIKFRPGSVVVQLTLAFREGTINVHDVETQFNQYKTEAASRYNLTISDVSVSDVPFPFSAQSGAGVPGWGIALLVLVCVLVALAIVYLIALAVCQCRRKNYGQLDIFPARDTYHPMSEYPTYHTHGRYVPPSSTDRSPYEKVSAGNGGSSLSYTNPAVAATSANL

B1: B5 scFv (scFv)
scFv: MAQVKLQESGAELVRPGASVTLSCKASGYTFTDYEMHWVKQTPVHGLEWIGAIDPETGGTAYNQKFKGKATLTADKSSSTAYMELRSLTSEDSAVYYCTRDGYYAWFAYWGQGTTVTVSSGGGGLGGGGSGGGGSDIELTQSPAIMSASPGERVTMTCSASSSIRYIYWYQQKPGSSPRLLIYDTSNVAPGVPFRFSGSGSGTSYSLTINRMEAEDAATYYCQEWSGYPYTFGGGTKLELKRAAAGAPVPYPDPLEPRAA
notes: The sheet prints only the panel letter G
For the molecule B1, in assay [1], the binding result was “binds”.

B2: anti-MUC-1 3D scFv (scFv, V domains shown)
VH: QVKLQESGPEVVKPGASVKLSCKASGYIFTSYDIDWVRQTPEQGLEWIGWIFPGEGSTEYNEKFKGRATLSVDKSSSTAYMELTRLTSEDSAVYFCARGDYYRRYFDLWGQGTTVTVSS
notes: After the linker stands a short composite of N- and C-terminal pieces of a VL, with no light-chain loops; also called clone 3D
In the case of B2, the Ka is 1.2e+08 to 1.5e+08 M⁻¹ in assay [2]; 2.2e+08 M⁻¹ and > 1e+08 M⁻¹ in assay [4]. Further, the “percent inhibition of binding with 1 nM of competitor” value (shortened to “percent inhibition of binding”) in assay [3] worked out at 50%.

B3: anti-MUC-1 C4 scFv (scFv)
scFv: QVQLQESGPGLVQPSQSLSITCTVSGFSLTAYGVHWIRQSPGKGLEWLGVIWSGGGTDYNPAFISRLNINKDNSKSQVFFKVDSLQLDDRGIYYCVRRNGYFFDSWGQGTTVTVSSSGRFSGGGSGGGGSDIELTQSPASLLCLWGRGPPSHAGPTMVVSTSGYNFIYWSQQKPGQSPKLLIYLSSNLESGVPARVSGSGSRTYFTLNIHPVEEEDAATFYCRHTRELPCTFGGRTKLEIKRAAAGAPVPYPDPLEPRAA
On to B3, for which the “percent inhibition of binding” value in assay [3] came to 94%. Besides, the Ka is 2.3e+08 M⁻¹ in assay [5] and 1.01e+09 M⁻¹ in assay [6].

B4: anti-MUC-1 12E scFv (scFv)
scFv: QVKLQQSGTEVVKPGASVKLSCKASGYIFTSYDIDWVRQTPEQGLEWIGWIFPGEGSTEYNEKFKGRATLSVDKSSSTAYMELTRLTSEDSAVYFCARGDYYRRYFDLWGQGTTVTVSSRGGGSGGGGSGGGGSDIELTQSPAIMSASPGERVTMTCSASSSIRYIYWYQQKPGSSPRLLIYDTSNVAPGVPFRFSGSGSGTSYSLTINRMEAEDAATYYCQEWSGYPYTFGGGTKLELKRAAAGAPVPYPDPLEPRAA
notes: As printed it begins with a vector leader and ends with the E-tag; Mouse scFv from pCANTAB 5E, expressed in E. coli; also called clone 12E
As to B4, the “percent inhibition of binding” value in assay [3] is 50%. Moreover, the Ka in assay [4] was 1.7e+08 M⁻¹ and > 1e+08 M⁻¹.

B5: 125I-anti-MUC-1 12E scFv, 42 kD fraction (divalent, considered a diabody) (scFv)
scFv: QVKLQQSGTEVVKPGASVKLSCKASGYIFTSYDIDWVRQTPEQGLEWIGWIFPGEGSTEYNEKFKGRATLSVDKSSSTAYMELTRLTSEDSAVYFCARGDYYRRYFDLWGQGTTVTVSSRGGGSGGGGSGGGGSDIELTQSPAIMSASPGERVTMTCSASSSIRYIYWYQQKPGSSPRLLIYDTSNVAPGVPFRFSGSGSGTSYSLTINRMEAEDAATYYCQEWSGYPYTFGGGTKLELKRAAAGAPVPYPDPLEPRAA
modifications: 125I-labelled (Chloramine T method)
notes: HPLC (SEC-2000) fraction of iodinated 12E scFv, considered to be a diabody (divalent); also called bivalent form of the 12E scFv
Regarding B5, the Ka in assay [7] was ~1.7e+08 M⁻¹.

B6: 125I-anti-MUC-1 12E scFv, 25 kD fraction (monovalent) (scFv)
scFv: QVKLQQSGTEVVKPGASVKLSCKASGYIFTSYDIDWVRQTPEQGLEWIGWIFPGEGSTEYNEKFKGRATLSVDKSSSTAYMELTRLTSEDSAVYFCARGDYYRRYFDLWGQGTTVTVSSRGGGSGGGGSGGGGSDIELTQSPAIMSASPGERVTMTCSASSSIRYIYWYQQKPGSSPRLLIYDTSNVAPGVPFRFSGSGSGTSYSLTINRMEAEDAATYYCQEWSGYPYTFGGGTKLELKRAAAGAPVPYPDPLEPRAA
modifications: 125I-labelled (Chloramine T method)
notes: HPLC (SEC-2000) fraction of iodinated 12E scFv, representative of the monovalent scFv; also called monomeric form of the 12E scFv
Take B6: the Ka in assay [8] was 8.6e+07 M⁻¹.
